# From patent US20140057332A1, “GLUCO-OLIGOSACCHARIDE OXIDASES FROM ACREMONIUM STRICTUM AND USES THEREOF” (The Governing Council of the University of Toronto, priority 2011, published 2014)
# What was measured:
# [1] = Chromogenic H2O2 oxidase assay / kinetic analysis on xylose; conditions: for Specific activity Defined substrate concentration: 10 mM xylose, 37° C., 15 min; for Specific activity From Vmax: substrate xylose
# Procedure: (§1) A chromogenic assay was used to measure hydrogen peroxide production (15). Reactions contained 0.1 mM 4aminoantipyrine (4AA), 1 mM phenol, 0.5 U horseradish peroxidase, 40 mM Tris-HCl (pH 8.0), and different substrates were initiated by adding 0.2 μg of enzymes to the 250 μL reaction mixture. The production of H2O2 was coupled to the oxidation of 4aminoantipyrine by horseradish peroxidase and detected at 500 nm. Reactions were incubated at 37° C. for 15 min to measure the specific activity of GOOX on 10 mM of monosaccharide or 1 mM of oligosaccharide.
# (§2) At least 12 substrate concentrations were included to obtain kinetic parameters for each substrate. Initial rates were obtained by measuring reaction products every 30 s for 15 min at 37° C. and pH 8.0, and kinetic parameters were calculated using the Michaelis-Menten equation (GraphPad Prism5 Software).
# [2] = Chromogenic H2O2 oxidase assay / kinetic analysis on galactose; conditions: for Specific activity Defined substrate concentration: 10 mM galactose, 37° C., 15 min; for Specific activity From Vmax: substrate galactose
# [3] = Chromogenic H2O2 oxidase assay / kinetic analysis on xylobiose; conditions: for Specific activity Defined substrate concentration: 1 mM xylobiose, 37° C., 15 min; for Specific activity From Vmax: substrate xylobiose
# Procedure: as §1, §2
# [4] = Chromogenic H2O2 oxidase assay on mannose
# Procedure: as §1
# An additional eight mutations, identified as Y72F, Y72A, E247A, E314A, W351A, N388S, Q353N, Q384A, were created in GOOX-VN to assess the influence of these residues on the substrate selectivity of GOOX-VN. […] The specific activity of each mutant was then measured at 37° C. for 15 min using 10 mM mono-sugars and 1 mM oligosaccharides as performed for Y300A, Y300N, and W351F (Table 11).
# [5] = Chromogenic H2O2 oxidase assay / kinetic analysis on NAG; conditions: for Specific activity Defined substrate concentration: 10 mM NAG, 37° C., 15 min; for Specific activity From Vmax: substrate NAG
# Procedure: as §1, §2
# [6] = Chromogenic H2O2 oxidase assay / kinetic analysis on cellobiose; conditions: for Specific activity Defined substrate concentration: 1 mM cellobiose, 37° C., 15 min; for Specific activity From Vmax: substrate cellobiose
# Procedure: as §1, §2
# [7] = Kinetic analyses, all tested substrates; assay type: biochemical; conditions: all tested monosaccharides and oligosaccharides
# Procedure: as §1, §2
# [8] = Chromogenic H2O2 oxidase assay / kinetic analysis on glucose; conditions: for Specific activity Defined substrate concentration: 10 mM glucose, 37° C., 15 min; for Specific activity From Vmax: substrate glucose
# [9] = Chromogenic H2O2 oxidase assay / kinetic analysis on maltose; conditions: for Specific activity Defined substrate concentration: 1 mM maltose, 37° C., 15 min; for Specific activity From Vmax: substrate maltose
# Procedure: as §1, §2
# [10] = Effect of deglycosylation with PNGaseF on enzyme activity; assay type: biochemical; conditions: 10 mM maltose, 15 min at 37° C., duplicate; for Activity, Deglycosylated: deglycosylated with PNGaseF (native conditions); for Activity, Glycosylated: glycosylated enzyme
# Procedure: Approximately 2 μg of purified enzyme was treated with PNGaseF (New England Biolabs) using denaturing and native conditions. Samples that were deglycosylated using denaturing conditions were analysed by SDS PAGE, while samples deglycosylated using native conditions were used to evaluate the impact of glycosylation on enzyme activity. The activity of enzymes was measured on 10 mM maltose at 37° C. for 15 min. (Table 7). N-glycosylation was predicted by NetNGlyc (http://www.cbs.dtu.dk/services/NetNGlyc/) while O-glycosylation was predicted by OGPET (http://ogpet.utep.edu/OGPET/).
# [11] = Chromogenic H2O2 oxidase assay / kinetic analysis on xylotriose; conditions: for Specific activity Defined substrate concentration: 1 mM xylotriose, 37° C., 15 min; for Specific activity From Vmax: substrate xylotriose
# Procedure: as §1, §2
# [12] = substrate: OC[C@H]1O[C@@H](O[C@H]2[C@H](O)[C@@H](O)C(O)O[C@@H]2CO)[C@H](O)[C@@H](O)[C@@H]1O; assay: purified protein, by the assay type; conditions: other: 37° C., pH 8.0
# Procedure: as §1, §2
# [13] = substrate: OC1OC[C@@H](O)[C@H](O)[C@H]1O; assay: purified protein, by the assay type; conditions: other: 37° C., pH 8.0
# Procedure: as §1, §2
# [14] = substrate: OC[C@H]1OC(O)[C@H](O)[C@@H](O)[C@@H]1O; assay: purified protein, by the assay type; conditions: other: 37° C., pH 8.0
# Procedure: as §1, §2
# [15] = substrate: OC1OC[C@@H](O[C@@H]2OC[C@@H](O)[C@H](O)[C@H]2O)[C@H](O)[C@H]1O; assay: purified protein, by the assay type; conditions: other: 37° C., pH 8.0
# Procedure: as §1, §2
# [16] = substrate: OC1OC[C@@H](O[C@@H]2OC[C@@H](O[C@@H]3OC[C@@H](O)[C@H](O)[C@H]3O)[C@H](O)[C@H]2O)[C@H](O)[C@H]1O; assay: purified protein, by the assay type; conditions: other: 37° C., pH 8.0
# Procedure: as §1, §2
# [17] = substrate: OC[C@H]1O[C@@H](O[C@H]2[C@H](O)[C@@H](O)[C@H](O[C@H]3[C@H](O)[C@@H](O)C(O)O[C@@H]3CO)O[C@@H]2CO)[C@H](O)[C@@H](O)[C@@H]1O; assay: purified protein, by the assay type; conditions: other: 37° C., pH 8.0
# Procedure: as §1, §2
# [18] = substrate: OC[C@H]1O[C@H](O[C@H]2[C@H](O)[C@@H](O)C(O)O[C@@H]2CO)[C@H](O)[C@@H](O)[C@@H]1O; assay: purified protein, by the assay type; conditions: other: 37° C., pH 8.0
# Procedure: as §1, §2
# [19] = substrate: CC(=O)N[C@H]1C(O)O[C@H](CO)[C@@H](O)[C@@H]1O; assay: purified protein, by the assay type; conditions: other: 37° C., pH 8.0
# Procedure: as §1, §2
# [20] = Chromogenic H2O2 oxidase assay / kinetic analysis on cellotriose; conditions: for Specific activity Defined substrate concentration: 1 mM cellotriose, 37° C., 15 min; for Specific activity From Vmax: substrate cellotriose
# Procedure: as §1, §2
# [21] = substrate: OC[C@H]1OC(O)[C@H](O)[C@@H](O)[C@H]1O; assay: purified protein, by the assay type; conditions: other: 37° C., pH 8.0
# Procedure: as §1, §2
molecule,measurement,setting,value
"Acremonium strictum gluco-oligosaccharide oxidase GOOX-VN variant 2 Y300N, SEQ ID NO. 7 (Sarocladium strictum; A38V/S388N/Y300N) (protein) NSINACLAAADVEFHEEDSEGWEMDGTAFNLRVDYDPVAIAIPRSTEDIAAAVQCGLDAGVQISAKGGGHSYGSYGFGGEDGHLMLELDRMYRVSVDDDNVATIQGGARLGYTALELLDQGNRALTHGTCPAVGIGGHVLGGGYGFATHTHGLTLDWLVGATVVLADASIVHVSKTENADLFWALRGGGGGFAIVSEFEFNTFEAPEIITTYQVTTTWNRKQHVAGLKALQDWAENTMPRELSMRLEINANALNWEGNYFGNAKDLKKVLQPIMKKAGGKSTISKLVETDWYGQINTYLNGADLNITYNYDVHEYFYANSLTAPRLSDEAISAFVDYKFDNSSVRPGRGWWIQWDFHGGKNSALASHSNDETAYAHRDQLWLWQFYDNIYDYENNTSPYPESGFEFMQGFVATIEDTLPEDRKGKYFNYADTTLDKEEAQKLYWRGNLEKLQAIKAKYDPEDVFGNVVSVEPIA",Specific activity Defined substrate concentration,[1],2.32 µmol/mg/min
same,Specific activity From Vmax,[1],11.48 µmol/mg/min
same,Specific activity Defined substrate concentration,[2],0.95 µmol/mg/min
same,Specific activity From Vmax,[2],11.64 µmol/mg/min
same,Specific activity Defined substrate concentration,[3],1.83 µmol/mg/min
same,Specific activity From Vmax,[3],11.84 µmol/mg/min
same,activity on mannose (in words),[4],low activity
same,Specific activity Defined substrate concentration,"[4]; 10 mM mannose, 37° C., 15 min",0.19 µmol/mg/min
same,Specific activity Defined substrate concentration,[5],1.5 µmol/mg/min
same,Specific activity From Vmax,[5],11.22 µmol/mg/min
same,Specific activity Defined substrate concentration,[6],8.15 µmol/mg/min
same,Specific activity From Vmax,[6],11.29 µmol/mg/min
same,catalytic activity (kcat) relative to GOOX-VN,[7],approximately two times higher
same,Specific activity Defined substrate concentration,[8],8.32 µmol/mg/min
same,Specific activity From Vmax,[8],10.70 µmol/mg/min
same,Specific activity Defined substrate concentration,[9],0.49 µmol/mg/min
same,Specific activity From Vmax,[9],10.30 µmol/mg/min
same,"Activity, Deglycosylated",[10],2.78 nmol/min
same,"Activity, Glycosylated",[10],2.6 nmol/min
same,Specific activity Defined substrate concentration,[11],2.00 µmol/mg/min
same,Specific activity From Vmax,[11],11.85 µmol/mg/min
same,Km,[12],0.38 ± 0.02 mM
same,Km,[13],32.01 ± 1.67 mM
same,Km,[14],3.11 ± 0.12 mM
same,Km,[15],4.83 ± 0.17 mM
same,Km,[16],4.32 ± 0.25 mM
same,Km,[17],0.44 ± 0.01 mM
same,Km,[18],19.61 ± 0.66 mM
same,kcat,[18],10.4 ± 0.105 s⁻¹
same,kcat/Km,[18],530 ± 18.3 M⁻¹ s⁻¹
same,Km,[19],55.95 ± 1.93 mM
same,Specific activity Defined substrate concentration,[20],6.90 µmol/mg/min
same,Specific activity From Vmax,[20],9.88 µmol/mg/min
"Acremonium strictum gluco-oligosaccharide oxidase GOOX-VN variant 3 W351F, SEQ ID NO. 8 (Sarocladium strictum; A38V/S388N/W351F) (protein) NSINACLAAADVEFHEEDSEGWEMDGTAFNLRVDYDPVAIAIPRSTEDIAAAVQCGLDAGVQISAKGGGHSYGSYGFGGEDGHLMLELDRMYRVSVDDDNVATIQGGARLGYTALELLDQGNRALTHGTCPAVGIGGHVLGGGYGFATHTHGLTLDWLVGATVVLADASIVHVSKTENADLFWALRGGGGGFAIVSEFEFNTFEAPEIITTYQVTTTWNRKQHVAGLKALQDWAENTMPRELSMRLEINANALNWEGNYFGNAKDLKKVLQPIMKKAGGKSTISKLVETDWYGQINTYLYGADLNITYNYDVHEYFYANSLTAPRLSDEAISAFVDYKFDNSSVRPGRGWFIQWDFHGGKNSALASHSNDETAYAHRDQLWLWQFYDNIYDYENNTSPYPESGFEFMQGFVATIEDTLPEDRKGKYFNYADTTLDKEEAQKLYWRGNLEKLQAIKAKYDPEDVFGNVVSVEPIA",Specific activity Defined substrate concentration,[1],0.15 µmol/mg/min
same,Specific activity From Vmax,[1],4.57 µmol/mg/min
same,Specific activity Defined substrate concentration,[2],1.30 µmol/mg/min
same,Specific activity From Vmax,[2],6.49 µmol/mg/min
same,Specific activity Defined substrate concentration,[3],5.93 µmol/mg/min
same,Specific activity From Vmax,[3],7.88 µmol/mg/min
same,Specific activity Defined substrate concentration,[5],0.1 µmol/mg/min
same,Specific activity From Vmax,[5],7.71 µmol/mg/min
same,Specific activity Defined substrate concentration,[6],5.10 µmol/mg/min
same,Specific activity From Vmax,[6],5.68 µmol/mg/min
same,Specific activity Defined substrate concentration,[8],1.31 µmol/mg/min
same,Specific activity From Vmax,[8],5.57 µmol/mg/min
same,Specific activity Defined substrate concentration,[9],0.84 µmol/mg/min
same,Specific activity From Vmax,[9],5.33 µmol/mg/min
same,"Activity, Deglycosylated",[10],3.19 nmol/min
same,"Activity, Glycosylated",[10],3.13 nmol/min
same,Specific activity Defined substrate concentration,[11],5.95 µmol/mg/min
same,Specific activity From Vmax,[11],7.81 µmol/mg/min
same,Km,[12],0.08 ± 0.00 mM
same,kcat,[12],5.74 ± 0.0833 s⁻¹
same,kcat/Km,[12],69000 ± 1000 M⁻¹ s⁻¹
same,Km,[14],31.05 ± 1.33 mM
same,Km,[15],0.35 ± 0.01 mM
same,kcat,[15],7.96 ± 0.0583 s⁻¹
same,kcat/Km,[15],23000 ± 683 M⁻¹ s⁻¹
same,Km,[16],0.31 ± 0.01 mM
same,kcat,[16],7.885 ± 0.0717 s⁻¹
same,kcat/Km,[16],25700 ± 867 M⁻¹ s⁻¹
same,Km,[17],0.11 ± 0.01 mM
same,kcat,[17],5.25 ± 0.107 s⁻¹
same,kcat/Km,[17],47300 ± 4420 M⁻¹ s⁻¹
same,Km,[21],36.12 ± 1.30 mM
same,Km,[18],4.96 ± 0.23 mM
same,kcat,[18],5.38 ± 0.0733 s⁻¹
same,kcat/Km,[18],1080 ± 51.7 M⁻¹ s⁻¹
same,Specific activity Defined substrate concentration,[20],4.62 µmol/mg/min
same,Specific activity From Vmax,[20],5.20 µmol/mg/min
